From patent US20090111742A1, “Use of fgf-21 and thiazolidinedione for treating type 2 diabetes” (priority 2004, published 2009)

Columns and labels:
male ob/ob mice = test: Ob/ob mouse model, blood glucose levels; format: in vivo; details: 1 hour post dose
Method: The Ob/ob mouse model is an animal model for hyperglycemia, insulin resistance and obesity. Male ob/ob mice are used to monitor plasma glucose levels and triglyceride levels after treatment with FGF-21, rosiglitazone, and FGF-21 in combination with rosiglitazone. The test groups of male ob/ob, mice (7 weeks old) are: FGF-21, 5 μg/day; rosiglitazone, 30 mg/kg/day; FGF-21, 3 ug/day, +rosiglitazone, 10 mg/kg/day; FGF-21, 5 ug/day, +rosiglitazone, 30 mg/kg/day; FGF-21, 5 ug/day, +rosiglitazone 10 mg/kg/day; s.c. vehicle control (0.9% NaCl, 0.1 ml/mouse); and, p.o. vehicle control (CMC/SLS/Povidone, 0.2 ml/mouse). FGF-21 is administered s.c. in 0.1 ml, and rosiglitazone is administered p.o. in 0.2 ml.
The animals are dosed daily for 14 days. Blood glucose levels are measured daily, 1 hour post dosing, using a standard protocol.

male db/db mice [1] = test: Db/db mouse model, blood glucose levels; format: in vivo; details: 1 hour post dose
Text: (§1) The genetically diabetic C57BL/KsJ (db/db) mouse provides an animal model of type 2 diabetes, characterized by obesity, hyperglycemia and insulin resistance with hyperinsulinemia. (Sharma et al., Am J Physiol Renal Physiol. 284(6):F1138-b 44, (2003)).
(§2) In the present study, male db/db mice, 9 weeks of age are used. The animals are randomized by body weight and blood glucose levels into groups of six mice per group. Group 1: vehicle 1: CMC/SLS/Povidone, p.o. […] The animals are dose for 14 days.
Blood glucose is measured daily, 1 hour post dosing.

male db/db mice [2] = test: Db/db mouse model, plasma triglycerides; format: in vivo
Text: as §1, §2
Plasma triglycerides are measured on days 7 and 14, 1 hour post dosing.

[3] = tested on: differentiated 3T3-L1 cells; test: Glucose uptake in mouse 3T3-L1 adipocytes (2-deoxy-D-[14C]glucose accumulation); format: cell-based; details: 72 hr. treatment
Method: 3T3-Li cells are obtained from the American Type Culture Collection (ATCC, Rockville, Md.). Cells are cultured in growth medium (GM) containing 10% calf serum in Dulbecco's modified Eagle's medium. For standard adipocyte differentiation, two days after cells reach confluency (referred as day 0), the cells are exposed to differentiation medium (DM) containing 10% fetal bovine serum, 5 μg/ml of insulin, 1 μM dexamethasone, and […] isobutylmethylxanthine, for 48 h and then are exposed to medium containing 10% fetal bovine serum, 5 μg/ml insulin for an additional 48 h. Cells are then maintained in post differentiation medium containing 10% fetal bovine serum.
Glucose Transport Assay—FGF-21 is added to the differentiated 3T3-L1 cells in 96 well plates at 0, 0.016, 0.08, 0.4, 2, 10, or 50.0 nM, and rosiglitazone is added to a final concentration of 1 μM, Table 1. For comparison, rosiglitazone alone is added at the concentrations indicated in Table 2 or in combination with FGF-21 at 1 μg/ml. The plates are incubated at 37° C. for 72 hours.
Hexose uptake, as assayed by the accumulation of 2-deoxy-D-[^14C]glucose, is measured as follows: 24 hours prior to the assay, the wells are rinsed twice with PBS and DMEM (high glucose, 1% antibiotic/antimycotic solution, 2 mM glutamine), 0.1% BSA plus FGF-21 is added. The plates are incubated at 37° C. for 72 hours. The cells are then washed twice with KRP buffer (136 mM NaCl, 4.7 mM KCl, 10 mM NaPO4, 0.9 mM CaCl2, 0.9 MM MgSO4, 0.1% BSA, pH 7.4), and then KRP buffer containing 1% BSA, 2-deoxy-D-glucose, 100 μM, 0.1 μCi/well 2-deoxy-D-[^14C]glucose is added and the plates are incubated at 37° C. for one hour. Cytochalasin B is added to stop further glucose uptake. Uptake is measured on a Microbeta plate reader.

## CN(CCOc1ccc(CC2SC(=O)NC2=O)cc1)c1ccccn1 (stereo not drawn) [Rosi., rosiglitazone, reference compound]
Male ob/ob mice; Rosi. 30 mg/kg/day p.o., day 0
  Blood Glucose Levels in ob/ob mice: 225 mg/dL
Male ob/ob mice; Rosi. 30 mg/kg/day p.o., day 2
  Blood Glucose Levels in ob/ob mice: 125 mg/dL
Male ob/ob mice; Rosi. 30 mg/kg/day p.o., day 4
  Blood Glucose Levels in ob/ob mice: 150 mg/dL
Male ob/ob mice; Rosi. 30 mg/kg/day p.o., day 6
  Blood Glucose Levels in ob/ob mice: 135 mg/dL
Male ob/ob mice; Rosi. 30 mg/kg/day p.o., day 8
  Blood Glucose Levels in ob/ob mice: 115 mg/dL
Male ob/ob mice; Rosi. 30 mg/kg/day p.o., day 10
  Blood Glucose Levels in ob/ob mice: 125 mg/dL
Male ob/ob mice; Rosi. 30 mg/kg/day p.o., day 12
  Blood Glucose Levels in ob/ob mice: 120 mg/dL
Male ob/ob mice; Rosi. 30 mg/kg/day p.o., day 14
  Blood Glucose Levels in ob/ob mice: 115 mg/dL
Male db/db mice [1]; Rosi. 10 mg/kg/day p.o., day 0
  Blood Glucose Levels in db/db mice: 265 mg/dL
Male db/db mice [1]; Rosi. 10 mg/kg/day p.o., day 2
  Blood Glucose Levels in db/db mice: 370 mg/dL
Male db/db mice [1]; Rosi. 10 mg/kg/day p.o., day 4
  Blood Glucose Levels in db/db mice: 350 mg/dL
Male db/db mice [1]; Rosi. 10 mg/kg/day p.o., day 6
  Blood Glucose Levels in db/db mice: 340 mg/dL
Male db/db mice [1]; Rosi. 10 mg/kg/day p.o., day 8
  Blood Glucose Levels in db/db mice: 265 mg/dL
Male db/db mice [1]; Rosi. 10 mg/kg/day p.o., day 10
  Blood Glucose Levels in db/db mice: 315 mg/dL
Male db/db mice [1]; Rosi. 10 mg/kg/day p.o., day 12
  Blood Glucose Levels in db/db mice: 360 mg/dL
Male db/db mice [1]; Rosi. 10 mg/kg/day p.o., day 14
  Blood Glucose Levels in db/db mice: 350 mg/dL
Male db/db mice [2]; Rosi. 10 mg/kg/day, Day 7, 1 hour post dose
  Plasma Triglycerides: 135 mg/dL
Male db/db mice [2]; Rosi. 10 mg/kg/day, Day 14, 1 hour post dose
  Plasma Triglycerides: 85 mg/dL

B1: FGF-21: mature human 181 amino acid FGF-21 polypeptide (SEQ ID NO:1), recombinantly expressed (protein)
chain: HPIPDSSPLLQFGGQVRQRYLYTDDAQQTEAHLEIREDGTVGGAADQSPESLLQLKALKPGVIQILGVKTSRFLCQRPDGALYGSLHFDPEACSFRELLLEDGYNVYQSEAHGLPLHLPGNKSPHRDPAPRGPARFLPLPGLPPALPEPPGILAPQPPDVGSSDPLSMVGPSQGRSPSYAS
modifications: homo sapiens
Male ob/ob mice; FGF-21 5 μg/day s.c., day 0
  Blood Glucose Levels in ob/ob mice: 225 mg/dL
Male ob/ob mice; FGF-21 5 μg/day s.c., day 2
  Blood Glucose Levels in ob/ob mice: 175 mg/dL
Male ob/ob mice; FGF-21 5 μg/day s.c., day 4
  Blood Glucose Levels in ob/ob mice: 150 mg/dL
Male ob/ob mice; FGF-21 5 μg/day s.c., day 6
  Blood Glucose Levels in ob/ob mice: 140 mg/dL
Male ob/ob mice; FGF-21 5 μg/day s.c., day 8
  Blood Glucose Levels in ob/ob mice: 140 mg/dL
Male ob/ob mice; FGF-21 5 μg/day s.c., day 10
  Blood Glucose Levels in ob/ob mice: 160 mg/dL
Male ob/ob mice; FGF-21 5 μg/day s.c., day 12
  Blood Glucose Levels in ob/ob mice: 180 mg/dL
Male ob/ob mice; FGF-21 5 μg/day s.c., day 14
  Blood Glucose Levels in ob/ob mice: 225 mg/dL
Male db/db mice [1]; FGF-21 3 μg/day s.c., day 0
  Blood Glucose Levels in db/db mice: 265 mg/dL
Male db/db mice [1]; FGF-21 3 μg/day s.c., day 2
  Blood Glucose Levels in db/db mice: 270 mg/dL
Male db/db mice [1]; FGF-21 3 μg/day s.c., day 4
  Blood Glucose Levels in db/db mice: 280 mg/dL
Male db/db mice [1]; FGF-21 3 μg/day s.c., day 6
  Blood Glucose Levels in db/db mice: 300 mg/dL
Male db/db mice [1]; FGF-21 3 μg/day s.c., day 8
  Blood Glucose Levels in db/db mice: 290 mg/dL
Male db/db mice [1]; FGF-21 3 μg/day s.c., day 10
  Blood Glucose Levels in db/db mice: 325 mg/dL
Male db/db mice [1]; FGF-21 3 μg/day s.c., day 12
  Blood Glucose Levels in db/db mice: 345 mg/dL
Male db/db mice [1]; FGF-21 3 μg/day s.c., day 14
  Blood Glucose Levels in db/db mice: 345 mg/dL
Male db/db mice [2]; FGF-21 3 ug/day, Day 7, 1 hour post dose
  Plasma Triglycerides: 165 mg/dL
Male db/db mice [2]; FGF-21 3 ug/day, Day 14, 1 hour post dose
  Plasma Triglycerides: 120 mg/dL
[3]; FGF-21 alone 0.4 nM
  14C-Deoxyglucose (CPM): 1300 CPM
[3]; FGF-21 alone 2.0 nM
  14C-Deoxyglucose (CPM): 2500 CPM
[3]; FGF-21 alone 10.0 nM
  14C-Deoxyglucose (CPM): 3100 CPM
[3]; FGF-21 alone 50.0 nM
  14C-Deoxyglucose (CPM): 3500 CPM
[3]; FGF-21 alone .016 nM
  14C-Deoxyglucose (CPM): 900 CPM
[3]; FGF-21 alone .08 nM
  14C-Deoxyglucose (CPM): 1000 CPM
